Data set [1] in a line: Stability of protein in the cream-based formulation (SDS-PAGE). In kind it is physicochemical. The following applies: in the cream formulations, stored at room temperature. On the procedure:
Stability is a major issue in incorporating recombinant proteins as active ingredients into a commercial product. […] Samples were then prepared for analysis and loaded onto an SDS-PAGE gel.
The samples were: Lane 1 contains TRIM Family Member protein that was stored in Phosphate Buffered Saline (PBS) at 4° C. for 13 months. Lane 2-4 are samples of the cream-based formulation containing the TRIM Family Member protein. The arrows indicate the band corresponding to the molecular weight of TRIM Family Member protein in each of the samples in Lanes 2-4. […] This is indicated by the lack of doublet bands in the cream samples. Thus, these formulations for the Emulsifier and Hydrogel are viable systems to maintain the activity of the active ingredient.

Data set [2] is described as follows: Isoelectric point / net charge of TRIM family member. Format: physicochemical.

For “TRIM Family Member protein: TRIM-family member protein, MG53, active ingredient of the cream”, the “activity of the active ingredient on storage” value in data set [1] is reported as “remains active for over one year”. Further, the isoelectric point in data set [2] is given as 6.08. Besides, the net charge entry in data set [2] (physiological pH of blood (7.35)) is “negative”.

(Values after patent US12357670B2, “Topical cream-based cosmetic and wound healing formulations and methods of use” (Eir Pharmaceuticals, LLC, priority 2018, dated 2025).)
